{"source": "patent US20040037775", "key": {"[1]": {"tested_on": "T1, MTX-cIBL conjugate", "T1 sequence": "QTSVSPSKVI"}, "[2]": {"tested_on": "T2, MTX-cIBR conjugate (methotrexate-cyclo-Leu Pro Arg Gly Gly Ser Val Leu Val Thr)", "T2 sequence": "LPRGGSVLVT"}}}
{"substance": "dihydrofolate reductase enzyme (DHFR)", "values": [{"measurement": "Km relative to MTX", "setting": "[1]", "value": "approximately 4 and 15 fold times less than that of MTX, respectively"}, {"measurement": "Km relative to MTX", "setting": "[2]", "value": "approximately 4 and 15 fold times less than that of MTX, respectively"}]}
